Laboratory results from patent publication US20050158748.

Columns and labels:
[1] = test system: ribosomal protein S6 (in purified 40S ribosomal subunits from liver)
[2] = test system: synthetic peptide representing C-terminus of S6 protein

recombinant p70α^S6k (Flag-tag or EE-tag version, expressed in HEK293 cells)
in vitro kinase reaction: phosphorylation of S6 protein in 40S subunits [1]: p70β^S6k (p70β-II isoform) phosphorylates the S6 protein in vitro nearly as efficiently as p70α^S6k | in vitro kinase reaction: phosphorylation of the synthetic peptide [2]: also phosphorylates this peptide but with slightly lower efficiency than observed with p70α^S6k
